In patent US20220306744A1 (CRESCENDO BIOLOGICS, published 2022):

B1: 1.2b (VHH)
VHH: EVQLLESGGGLVKPGGSLRLSCAASGFTFSDYTMTWMRQAPGKGLEWVSYISTGGSIKYYTDSVKGRFTISRDNAKNSLYLQMNSLRADDTAVYYCAREAPLRLGESPHDAFDIWGQGTMVTVSS
B2: 1.3b (VHH)
VHH: QVQLVESGGGLVKPGGSLRLSCAASGFTFSDYTMTWMRQAPGKGLEWVSYISTGGSIKYYTDSVKGRFTISRDNAKNSLYLQMNSLRADDTAVYYCAREAPLRLGESPHDAFDIWGQGTMVTVSS
B3: 1.4b (VHH)
VHH: QVQLVESGGGLVKPGGSLRLSCAASGFTFSDYYMIWMRQAPGKGLEWVSYISGGGTTKYYTDSVKGRFTISRDNAKNSLYLQMNSLRADDTAVYYCAREAPLRLGETPHDAFDIWGQGTMVTVSS
B4: 1.5b (VHH)
VHH: EVQLVESGGGLVKPGGSLRLSCAASGFTFSDYTMTWMRQAPGKGLEWVSYISTGGNTKYYTDSVKGRFTISRDNAKNSLYLQMNSLRADDTAVYYCAREAPLRLGESPHDAFDIWGQGTMVTVSS
B5: 1.6b (VHH)
VHH: EVQLLESGGGLVKPGGSLRLSCAASGFTFSDYTMTWMRQAPGKGLEWVSYISTGGTIKYYTDSVKGRFTISRDNAKNSLYLQMSSLRADDTAVYYCAREAPLRLGESPHDAFDIWGQGTMVTVSS
B6: 1.8b (VHH)
VHH: EVQLVESGGGLVKPGGSLRLSCAASGFTFSDYTMTWMRQAPGKGLEWVSYISTGGSIKYYTDSVKGRFTISRDNAKNSLYLQMNSLRAGDTAVYYCAREAPLRLGESPHDAFDIWGQGTMVTVSS
B7: 1.9b (VHH)
VHH: QVQLVESGGGLVKPGGSLRLSCAASGFTFGDYTMTWMRQAPGKGLEWVSYISTGGTIKYYTDSVKGRFTISRDNAKNSLYLQMDSLRADDTAVYYCAREAPLRLGESPHDAFDIWGQGTMVTVSS
B8: 1.10b (VHH)
VHH: QVQLVESGGGLVKPGGSLRLSCAASGFTFSDYTMSWMRQAPGKGLEWISYISLGGNTKYYTDSVKGRFTISRDNAKNSLYLQMNSLRADDTAVYYCAREAPLRLGESPHDAFDIWGQGTMVTVSS
B9: 1.11b (VHH)
VHH: EVQLLESGGGLVKPGGSLRLSCAASGFTFSDYDMTWIRQAPGKGQEWVSYISRGGSTKYYADSVKGRFTISRDNAKNSLYLQMNSLRAEDTAVYYCAREAPLRLGETPHDAFDIWGQGTMVTVSS
B10: 1.16b (VHH)
VHH: EVQLVESGGGLVKPGGSLRLSCAASGFTFSDYTMSWMRQAPGKGLEWVSYISTGGSIKYYTDSVKGRFTISRDNAKNSLYLQMNSLRADDTAVYYCAREAPLRLGESPHDAFDIWGQGTMVTVSS
B11: 1.17b (VHH)
VHH: EVQLVESGGGLVKPGGSLRLSCAASGFTFSDYTMTWMRQAPGKGLEWVSYISTGGSIKYYTDSVKGRFTISRDNAKNSLYLQMNSLRVDDTAVYYCAREAPLRLGESPHDAFDIWGQGTMVTVSS
B12: 1.19b (VHH)
VHH: QVQLVESGGGLVKPGGSLRLSCAASGFTFSDYTMTWMRQAPGKGLEWVSYISTGGSIKYYTDSVKGRFTISRDNAKNSLYLQMNSLRAEDTAVYYCAREAPLRLGETPHDAFDIWGQGTMVTVSS
B13: 1.20b (VHH)
VHH: EVQLLESGGGLVKPGGSLRLSCAASGFTFSDYTMTWMRQAPGKGLEWVSYISSGGSIKFYADSVKGRFTISRDNAKNSLYLQMNSLRAEDTAVYYCAREAPLRLGESPHDAFDIWGQGTMVTVSS
B14: 1.21b (VHH)
VHH: EVQLVESGGGLVKPGGSLRLSCAASGFTFSDYTMTWMRQAPGKGLEWVSYISTGGSIKYYTDSVKGRFTISRDNAKNSLYLQMNSLRADDTAVYYCAREAPLRLGESPHDAFDTWGQGTMVTVSS
B15: 1.22b (VHH)
VHH: EVQLVESGGGLVKPGGSLRLSCAASGFTFSDYTMTWMRQAPGKGLEWVSYISTGGSIKYYTDSVKGRFTISRDNAKNSLYLQMNSLRADDTAVYYCAREAPLRLGESPHDAFDIWGQGTMVTVSS
B16: 1.23b (VHH)
VHH: QITLKESGGGLVKPGGSLRLSCAASGFTFSDYTMSWMRQAPGKGLEWVSYISTGGTIKYYTDSVKGRFTISRDNAKNSLYLQMNSLRADDTAVYYCAREAPLRLGESPHDAFDIWGQGTMVTVSS
B17: 1.27b (VHH)
VHH: QVTLKESGGGLVKPGGSLRLSCAASGFTFSDYTMTWMRQAPGKGLEWVSYISTGGSIKYYTDSVKGRFTISRDNAKNSLYLQMNSLRADDTAVYYCAREAPLRLGESPHDAFDIWGQGTMVTVSS
B18: 1.29b (VHH)
VHH: QVTLKESGGGLVKPGGSLRLSCAASGFTFSDYTMSWMRQAPGKGLEWVSYISTGGTIKYYTDSVKGRFTISRDNAKNSLYLQMNSLRADDTAVYYCAREAPLRLGESPHDAFDIWGQGTMVTVSS
B19: 1.30b (VHH)
VHH: QVTLKESGGGLVKPGGSLRLSCAASGFTFSDYTMTWMRQAPGKGLEWVSYISTGGSIKYYTDSVKGRFTISRDNARNSLYLQMNSLRAEDTAVYYCAREAPLRLGESPHDAFDIWGQGTMVTVSS
B20: 1.31b (VHH)
VHH: QVTLKESGGGLVKPGGSLRLSCAASGFTFSDYTMTWMRQAPGKGLEWVSYISTGGSTKYYTDSVKGRFTISRDNAKNSLYLQMNSLRADDTAVYYCAREAPLRLGESPHDAFDIWGQGTMVTVSS
B21: 1.32b (VHH)
VHH: QVTLKESGGGLVKPGGSLRLSCAASGFTFSDDYMMWIRQAPGKGLEWVSYISSGGSIIYYADSVKGRFTISRDNAKNSLYLQMNSLRAEDTAVYYCAREAPLRLGESPHDAFDIRGQGTMVTVSS
B22: 1.34b (VHH)
VHH: EVQLVESGGGLVKPGGSLRLSCAASGFTFSDYTMTWMRQAPGKGLEWVSYISTGGSVKYYTDSVKGRFTISRDNAKNSLYLQMNSLRADDTAVYYCAREAPLRLGESPHDAFDIWGQGTMVTVSS
B23: 1.35b (VHH)
VHH: EVQLLESGGGLVKPGGSLRLSCAASGFTFSDYTMTWMRQAPGKGLEWVSYISTGGSIKYYTDSVKGRFTISRDNAKNSLYLQMNSLRVDDTAVYYCAREAPLRLGESPHDAFDIWGQGTMVTVSS
B24: 1.36b (VHH)
VHH: EVQLVESGGGLVKPGGSLRLSCAASGFTFSDYTMTWMRQAPGKGLEWVSYISTGGTIKYYTDSVKGRFTISRDNAKNSLFLQMNSLRADDTAVYYCAREAPLRLGESPHDAFDIWGQGTMVTVSS
B25: 1.37b (VHH)
VHH: QVQLVESGGGLVKPGGSLRLSCAASGFTFSDYTMTWMRQAPGKGLEWVSYISTGGSIKYYTDSVKGRFTISRDNAKNSLFLQMNSLRADDTAVYYCAREAPLRLGESPHDAFDIWGQGTMVTVSS
B26: 1.39b (VHH)
VHH: QVQLQESGGGLVKPGGSLRLSCAASGFTFSDYTMTWMRQAPGKGLEWVSYISTGGSIKYYTDSVKGRFTISRDNAKNSLYLQMNSLRADDTAVYYCAREAPLRLGESPHDAFDIWGQGTMVTVSS
B27: 1.42b (VHH)
VHH: QVQLVESGGGLVKPGGSLRLSCAASGFTFSDNSMTWMRQAPGKGLEWVSYISSGGGVKFYADSVKGRFTISRDNAKNSLYLQMNSLRADDTAVYYCAREAPLRLGESPHDAFDIWGQGTMVTVSS
B28: 1.43b (VHH)
VHH: QVQLVESGGGLVKPGGSLRLSCAASGFTFSDSSMTWMRQAPGKGLEWVSYISSGGGVIFYADSVKGRFTISRDNAKNSLYLQMNSLRADDTAVYYCAREAPLRLGESPHDAFDIWGQGTMVTVSS
B29: 1.44b (VHH)
VHH: QVQLVESGGGLVKPGGSLRLSCAASGFTFSDNSMTWMRQAPGKGLEWVSYISSGGAVKFYADSVKGRFTISRDNAKNSLYLQMNSLRADDTAVYYCAREAPLRLGESPHDAFDIWGQGTMVTVSS
B30: 1.45b (VHH)
VHH: QVQLVESGGGLVKPGGSLRLSCAASGFTFSDYSMSWMRQAPGKGLEWVSYISSGGGVIFYADSVKGRFTISRDNAKNSLYLQMNSLRADDTAVYYCAREAPLRLGESPHDAFDIWGQGTMVTVSS
B31: 1.46b (VHH)
VHH: QVQLVESGGGLVKPGGSLRLSCAASGFTFSDSSMSWMRQAPGKGLEWVSYISSGGGVIFYADSVKGRFTISRDNAKNSLYLQMNSLRADDTAVYYCAREAPLRLGESPHDAFDIWGQGTMVTVSS
B32: 1.47b (VHH)
VHH: QVQLVESGGGLVKPGGSLRLSCAASGFTFSDNSMSWMRQAPGKGLEWVSYISSGGGVIFYADSVKGRFTISRDNAKNSLYLQMNSLRADDTAVYYCAREAPLRLGESPHDAFDIWGQGTMVTVSS

These binders were tested against T1, human PD-1 expressed on cells (CHO TREX human PD1 cell line, full-length human PD-1 sequence) (human, UniProt Q15116 21-288) (assay: worded summary of the screens).
T1 construct: Also used for human PD-1 on Jurkat reporter cells, on PathHunter cells and on PHA-stimulated human CD4+ T cells; also called CHO human PD1 cells; CHO human PD-1 cells
T1 sequence (Q15116 21-288): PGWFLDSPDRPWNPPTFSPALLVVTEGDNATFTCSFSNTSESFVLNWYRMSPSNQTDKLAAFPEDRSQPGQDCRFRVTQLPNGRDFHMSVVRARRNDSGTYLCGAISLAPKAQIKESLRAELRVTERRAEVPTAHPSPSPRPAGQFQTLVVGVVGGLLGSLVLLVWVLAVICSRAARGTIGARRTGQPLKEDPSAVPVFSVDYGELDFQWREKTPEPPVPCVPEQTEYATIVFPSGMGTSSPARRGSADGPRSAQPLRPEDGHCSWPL
B1: binds.
B2: binds.
B3: binds.
B4: binds.
B5: binds.
B6: binds.
B7: binds.
B8: binds.
B9: binds.
B10: binds.
B11: binds.
B12: binds.
B13: binds.
B14: binds.
B15: binds.
B16: binds.
B17: binds.
B18: binds.
B19: binds.
B20: binds.
B21: binds.
B22: binds.
B23: binds.
B24: binds.
B25: binds.
B26: binds.
B27: binds.
B28: binds.
B29: binds.
B30: binds.
B31: binds.
B32: binds.
